The values that follow come from publication doi:10.1101/620195, “Modulation of DNA polymerase IV activity by UmuD and RecA* observed by single-molecule time-lapse microscopy” (bioRxiv, 2019).

For this experiment, the target named is T1, E. coli RecA(E38K) protein (E. coli, UniProt P0A7G6 1-353, E38K).
T1 construct: RecA recombinase, E. coli, with the E38K mutation (allele recA730); In the assay it stood as a filament assembled with ATPγS on a biotinylated 60-mer dsDNA held on a streptavidin chip; also called recA730; RecA(E38K)-ATPγS filaments
T1 sequence (looked up): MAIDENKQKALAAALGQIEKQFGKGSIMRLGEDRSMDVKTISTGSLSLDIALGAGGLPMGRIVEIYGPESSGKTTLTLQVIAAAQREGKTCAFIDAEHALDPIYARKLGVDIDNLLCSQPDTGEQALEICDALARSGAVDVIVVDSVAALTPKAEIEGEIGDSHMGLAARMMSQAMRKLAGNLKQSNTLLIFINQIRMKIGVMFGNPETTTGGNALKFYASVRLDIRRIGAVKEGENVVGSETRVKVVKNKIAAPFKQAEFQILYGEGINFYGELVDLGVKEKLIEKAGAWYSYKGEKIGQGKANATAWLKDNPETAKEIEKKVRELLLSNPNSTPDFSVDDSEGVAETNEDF
In words: SPR; BIAcore T200, SA chip; RecA(E38K) filaments assembled on immobilised biotinylated 60-mer dsDNA; 0.65 uM pol IV injected for 220 s at 5 uL/min; 20 °C; 20 mM Tris-HCl pH 8.0, 10 mM KCl, 10 mM MgCl2, 0.005% surfactant P20, 0.5 mM dithiothreitol, 0.5 mM ATPγS. The following applies: both partners purified.

B1: DNA polymerase IV (pol IV) (enzyme, E. coli, UniProt Q47155 1-351, looked up)
chain: MRKIIHVDMDCFFAAVEMRDNPALRDIPIAIGGSRERRGVISTANYPARKFGVRSAMPTGMALKLCPHLTLLPGRFDAYKEASNHIREIFSRYTSRIEPLSLDEAYLDVTDSVHCHGSATLIAQEIRQTIFNELQLTASAGVAPVKFLAKIASDMNKPNGQFVITPAEVPAFLQTLPLAKIPGVGKVSAAKLEAMGLRTCGDVQKCDLVMLLKRFGKFGRILWERSQGIDERDVNSERLRKSVGVERTMAEDIHHWSECEAIIERLYPELERRLAKVKPDLLIARQGVKLKFDDFQQTTQEHVWPRLNKADLIATARKTWDERRGGRGVRLVGLHVTLLDPQMERQLVLGL
notes: DNA polymerase IV, product of dinB, E. coli; Native pol IV, no tag, > 99% pure; also called DinB
Take B1: the binding result was “binds”.
